Results: article PMC8483785, “The plant nuclear lamina proteins NMCP1 and NMCP2 form a filamentous network with lateral filament associations” (Journal of Experimental Botany, 2021)

Columns and labels:
[1] = molecular target: His-tagged DcNMCP1 (Daucus carota nuclear matrix constituent protein 1 with an N-terminal 6x His tag) (Daucus carota); assay: transmission electron microscopy after low-angle rotary metal shadowing; purified protein in urea dialysed against H2O (30-120 min) to induce refolding; sprayed in 40% glycerol on mica, platinum-carbon shadowing; monomers to coiled-coil dimer
[2] = molecular target: the molecule itself; assay: as above

Row | Molecule | stoichiometry N [1] | stoichiometry N [2]
1 | His-tagged DcNMCP1 (Daucus carota nuclear matrix constituent protein 1 with an N-terminal 6x His tag) (from UniProt A0A166B1A6 1-1119) (natural protein) | 2 | 
2 | His-tagged DcNMCP2 (Daucus carota nuclear matrix constituent protein 2 with an N-terminal 6x His tag) (natural protein, UniProt D2YZU8 1-927, looked up, Nuclear matrix constituent protein 2 (NMCP2) of Daucus carota; longest ORF of cDNA clone pD2m, amplified from the start codon to the stop codon; the PCR product included a 2808 bp ORF; GenBank AB514509; also called 6x His-tagged DcNMCP2; product of pDC2mN; not shown: His6, N-terminal, kept) MASPRLTVIQSEKTTVTSSRVSRSSMSDDDIWKRLQEAGFDEDSIKRRDKASLIAYITKLEAEIYDHQYQMGLLIMERKEWGSKFERVEAALNSAELMRKHDKNLYLKDLAEAKKREENLKKAIEIERECLANIEKTLHELRAEYAETKVMADSKLVEARSMIEDALKKLSEADAKKHAAESLEAEASRYHSAAERKLHEVEAREDDLRRRATSFKTECDTKEEEILHERRLLNERQKALQQSQQRLVDGQDLLNKRESHIFERTQELNRKEKELEASKLKQEEELQALVEQQANLETKASSLSLREEVITKSELEVKKREEELCVLQEKLEKKESERIQQLLANYEASLSMKKSEFEAELEVKRKSVHDDIENKRRDWELREVDLHHREELILEKEHELEMQSRAVVDKERDLAGRFSLLEEKENRLHAVEKEIESKEALLQKEKEEIISSKLDIQRSLDALEDEKKQLHHAEEKMEAMKSETNELCVLESKLKEEIETIRAQKQELETEADEMKELKLKFEIEWQSIDEKRKELQKEAECINEQRESLELTLKDERNSLKLEKDAMRDEYMRNNESLSRDREDFMKKMEHERSEWFSKIQKERSDYLLAIEVQSKDLEDRLAKRREEIESYLAERERAFEEEKKKELMRMDTLRETLARETEQVNAELNRLDTERREINLDRERRDREWAELNTLIEELKVQRQKLEKQRELMRADKEEILVQIEHLKQLEDLKVVPDRIALTDIQQSDLQPSKRVSARRSLKRQSGLDSGCRAEDNGNASSGNGSVILSPPLSSPFSWLKRCASSLLEQKVSNKKMRHSEEIITPSTIPARLNAPDDEHAVISANQQTPVHAKETTVYIDKIITIREVTSFNDAIVDGNNQNLEEALSQRAEEKLEDDNNIESEKLEKNGEVDPKIMQASLTEQ |  | 2
